Laboratory results from the supplement of paper PMC11246515.
± gives the standard deviation of the averaged measurements.

Assay: total protein half-life in vivo (active degradation + dilution); higher = more stable protein
[1] = E. coli NCM3722 delta-clpP delta-lon delta-hslV, growth: N-lim chemostat, doubling time 6 h
[2] = E. coli NCM3722 delta-hslV, growth: N-lim chemostat, doubling time 6 h
[3] = E. coli NCM3722 delta-lon, growth: N-lim chemostat, doubling time 6 h
[4] = E. coli NCM3722 delta-smpB, growth: N-lim chemostat, doubling time 6 h
[5] = wild type E. coli NCM3722, growth: C-lim chemostat, doubling time 3 h
[6] = wild type E. coli NCM3722, growth: C-lim chemostat, doubling time 6 h
[7] = wild type E. coli NCM3722, growth: C-lim chemostat, doubling time 12 h
[8] = wild type E. coli NCM3722, growth: N-lim chemostat, doubling time 6 h
[9] = wild type E. coli NCM3722, growth: N-lim chemostat, doubling time 12 h
[10] = wild type E. coli NCM3722, growth: P-lim chemostat, doubling time 6 h
[11] = wild type E. coli NCM3722, growth: P-lim chemostat, doubling time 12 h
[12] = E. coli NCM3722 delta-clpP, growth: N-lim chemostat, doubling time 6 h

Chain of P0ADC1 (chain, as listed by the source): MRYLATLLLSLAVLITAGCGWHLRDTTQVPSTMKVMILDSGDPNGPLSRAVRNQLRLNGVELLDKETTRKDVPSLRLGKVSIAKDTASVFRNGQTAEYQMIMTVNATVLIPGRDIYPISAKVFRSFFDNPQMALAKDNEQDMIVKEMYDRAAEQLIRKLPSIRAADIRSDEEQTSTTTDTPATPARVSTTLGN
Chain of P0ABR5 (chain, as listed by the source): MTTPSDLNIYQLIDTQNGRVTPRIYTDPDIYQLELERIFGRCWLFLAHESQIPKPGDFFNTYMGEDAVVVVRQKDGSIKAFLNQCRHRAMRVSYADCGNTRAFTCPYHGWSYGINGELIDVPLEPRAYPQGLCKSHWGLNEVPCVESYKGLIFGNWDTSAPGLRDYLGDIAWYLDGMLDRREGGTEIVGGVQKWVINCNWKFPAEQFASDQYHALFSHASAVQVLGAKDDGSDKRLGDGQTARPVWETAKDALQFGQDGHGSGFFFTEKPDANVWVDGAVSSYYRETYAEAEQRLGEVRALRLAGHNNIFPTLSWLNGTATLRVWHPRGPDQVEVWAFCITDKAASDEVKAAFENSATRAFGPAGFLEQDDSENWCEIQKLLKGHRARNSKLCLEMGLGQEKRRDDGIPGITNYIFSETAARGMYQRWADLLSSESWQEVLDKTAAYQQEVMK

Row | Substance | total protein half-life in vivo [1] [h] | total protein half-life in vivo [2] [h] | total protein half-life in vivo [3] [h] | total protein half-life in vivo [4] [h] | total protein half-life in vivo [5] [h] | total protein half-life in vivo [6] [h] | total protein half-life in vivo [7] [h] | total protein half-life in vivo [8] [h] | total protein half-life in vivo [9] [h] | total protein half-life in vivo [10] [h] | total protein half-life in vivo [11] [h] | total protein half-life in vivo [12] [h]
1 | MYRIVLGKVSTLSAAPLPPGLREQAPQGPRRERWLAGRALLSHTLSPLPEIIYGEQGKPAFAPEMPLWFNLSHSGDDIALLLSDEGEVGCDIEVIRPRANWRWLANAVFSLGEHAEMDAVHPDQQLEMFWRIWTRKEAIVKQRGGSAWQIVSVDSTYHSSLSVSHCQLENLSLAICTPTPFTLTADSVQWIDSVN | 4.86 ± 0.67 | 3.56 ± 0.17 | 3.99 ± 0.64 | 2.53 ± 0.075 | 2.55 ± 0.032 | 4.94 ± 0.18 | 8.278 ± 0.081 | 3.78 ± 0.16 | 6.11 ± 0.44 | 5.86 ± 0.65 | 11.1 ± 2.4 | –
2 | MYSSSRKRCPKTKWALKLLTAAFLAASPAAKSAVNNAYDALIIEARKGNTQPALSWFALKSALSNNQIADWLQIALWAGQDKQVITVYNRYRHQQLPARGYAAVAVAYRNLQQWQNSLTLWQKALSLEPQNKDYQRGQILTLADAGHYDTALVKLKQLNSGAPDKANLLAEAYIYKLAGRHQDELRAMTESLPENASTQQYPTEYVQALRNNQLAAAIDDANLTPDIRADIHAELVRLSFMPTRSESERYAIADRALAQYAALEILWHDNPDRTAQYQRIQVDHLGALLTRDRYKDVISHYQRLKKTGQIIPPWGQYWVASAYLKDHQPKKAQSIMTELFYHKETIAPDLSDEELADLFYSHLESENYPGALTVTQHTINTSPPFLRLMGTPTSIPNDTWLQGHSFLSTVAKYSNDLPQAEMTARELAYNAPGNQGLRIDYASVLQARGWPRAAENELKKAEVIEPRNINLEVEQAWTALTLQEWQQAAVLTHDVVEREPQDPGVVRLKRAVDVHNLAELRIAGSTGIDAEGPDSGKHDVDLTTIVYSPPLKDNWRGFAGFGYADGQFSEGKGIVRDWLAGVEWRSRNIWLEAEYAERVFNHEHKPGARLSGWYDFNDNWRIGSQLERLSHRVPLRAMKNGVTGNSAQAYVRWYQNERRKYGVSWAFTDFSDSNQRHEVSLEGQERIWSSPYLIVDFLPSLYYEQNTEHDTPYYNPIKTFDIVPAFEASHLLWRSYENSWEQIFSAGVGASWQKHYGTDVVTQLGYGQRISWNDVIDAGATLRWEKRPYDGDREHNLYVEFDMTFRF | – | – | – | – | – | – | > 16 | – | – | – | – | –
3 | MYTRNLLWLVSLVSAAPLYAADVPANTPLAPQQVFRYNNHSDPGTLDPQKVEENTAAQIVLDLFEGLVWMDGEGQVQPAQAERWEILDGGKRYIFHLRSGLQWSDGQPLTAEDFVLGWQRAVDPKTASPFAGYLAQAHINNAAAIVAGKADVTSLGVKATDDRTLEVTLEQPVPWFTTMLAWPTLFPVPHHVIAKHGDSWSKPENMVYNGAFVLDQWVVNEKITARKNPKYRDAQHTVLQQVEYLALDNSVTGYNRYRAGEVDLTWVPAQQIPAIEKSLPGELRIIPRLNSEYYNFNLEKPPFNDVRVRRALYLTVDRQLIAQKVLGLRTPATTLTPPEVKGFSATTFDELQKPMSERVAMAKALLKQAGYDASHPLRFELFYNKYDLHEKTAIALSSEWKKWLGAQVTLRTMEWKTYLDARRAGDFMLSRQSWDATYNDASSFLNTLKSDSEENVGHWKNAQYDALLNQATQITDATKRNALYQQAEVIINQQAPLIPIYYQPLIKLLKPYVGGFPLHNPQDYVYSKELYIKAH | – | 6.61 ± 1.4 | 6.72 ± 0.075 | 5.64 ± 0.24 | 2.9 ± 0.11 | 5.96 ± 0.64 | 11 ± 0.65 | 5.531 ± 0.0077 | – | 5.83 ± 0.61 | 11.7 ± 0.71 | 5.575 ± 0.035
4 | MYVAVKGGEKAIDAAHALQESRRRGDTDLPELSVAQIEQQLNLAVDRVMTEGGIADRELAALALKQASGDNVEAIFLLRAYRTTLAKLAVSEPLDTTGMRLERRISAVYKDIPGGQLLGPTYDYTHRLLDFTLLANGEAPTLTTADSEQQPSPHVFSLLARQGLAKFEEDSGAQPDDITRTPPVYPCSRSSRLQQLMRGDEGYLLALAYSTQRGYGRNHPFAGEIRSGYIDVSIVPEELGFAVNVGELLMTECEMVNGFIDPPGEPPHFTRGYGLVFGMSERKAMAMALVDRALQAPEYGEHATGPAQDEEFVLAHADNVEAAGFVSHLKLPHYVDFQAELELLKRLQQEQNHG | – | – | – | – | – | – | – | – | – | 0.609 ± 0.46 | 1.36 ± 0.41 | –
5 | MYYGFDIGGTKIALGVFDSGRQLQWEKRVPTPRDSYDAFLDAVCELVAEADQRFGCKGSVGIGIPGMPETEDGTLYAANVPAASGKPLRADLSARLDRDVRLDNDANCFALSEAWDDEFTQYPLVMGLILGTGVGGGLIFNGKPITGKSYITGEFGHMRLPVDALTMMGLDFPLRRCGCGQHGCIENYLSGRGFAWLYQHYYHQPLQAPEIIALYDQGDEQARAHVERYLDLLAVCLGNILTIVDPDLVVIGGGLSNFPAITTQLADRLPRHLLPVARVPRIERARHGDAGGMRGAAFLHLTD | 4.42 ± 0.85 | 3.76 ± 0.45 | 4.37 ± 0.18 | 4.06 ± 0.31 | 2.86 ± 0.4 | 4.98 ± 0.17 | 9.97 ± 0.28 | 3.9761 ± 0.0021 | 6.67 ± 1.1 | 6.09 ± 0.9 | 11.7 ± 0.2 | –
6 | P0ABD3 | – | 6.83 ± 1.2 | 6.67 ± 0.28 | 6.17 ± 0.69 | – | 6.73 ± 1.5 | 11.4 ± 1.6 | 5.57 ± 0.29 | 13.5 ± 2.1 | 5.92 ± 0.82 | 13.2 ± 0.8 | 5.98 ± 0.58
7 | P0ABR5 | 6.36 ± 1.3 | – | – | – | 1.02 | 2.09 | 3.87 ± 2.6 | – | – | 1.661 ± 0.003 | 2.48 ± 0.059 | –
8 | P0ADC1 | 6.56 ± 1.7 | 6.27 ± 0.14 | – | 6.59 ± 0.86 | 2.97 ± 0.026 | 6.71 ± 0.69 | 12.9 ± 0.43 | 6.33 ± 0.095 | 11.7 ± 1.9 | – | 12.7 ± 0.69 | –
9 | P0CK95 | – | – | – | – | 2.75 | – | – | – | – | 6.26 ± 0.39 | 13 ± 0.41 | –
10 | P30015 | 6.18 ± 0.094 | 5.75 ± 0.43 | 5.14 ± 0.24 | 4.71 ± 0.31 | 2.92 | 6.31 ± 0.44 | 11.4 ± 3.1 | 5.5 ± 0.47 | 9.93 ± 0.82 | 5.97 ± 0.43 | 11.8 ± 0.42 | 5.87 ± 0.33
11 | P77704 | 6.54 ± 0.9 | 1.5 | 2.26 | 1.31 | – | – | – | 1.53 ± 0.3 | 2.2 | – | – | –
